The values below come from patent US20120208867, “HMGB1 BINDING NUCLEIC ACID MOLECULE AND APPLICATIONS THEREOF” (published 2012).

What all share (conditions): tags: N-terminal His-tag
The target of data set [1] is T1, His-tagged HMGB1 (UniProt P09429 P09429:1-215). The data set can be described thus: SPR; 635 nM protein, 500 mM NaCl. The protocol: (§1) First, a sensor chip (trade name: Sensor Chip SA, manufactured by GE Heathcare) specially made for a BIACORE was set on the aforementioned BLACORE (registered trademark) X. Biotinylate deoxythymidine (5 μmol/L) was injected into the flow cell 2 of the aforementioned sensor chip using a running buffer and subjected to binding until the signal intensity (RU: resonance unit) reached about 1000 RU. For the aforementioned biotinylated deoxythymidine, 20-base-long deoxythymidine in which the 5′ end was biotinylated was used. Then, 10 μg/mL of an RNA aptamer was injected at a flow rate of 20 μL/min for 1 min into the aforementioned flow cells 1 and 2 of the aforementioned chip using a running buffer and subjected to binding until the signal intensity reached about 1000 RU. Next, 675 nmol/L of the aforementioned His-tag-added HMGB1 was injected at a flow rate of 20 μL/min for 30 sec using the aforementioned running buffer, and under the same conditions the aforementioned running buffer was allowed to flow continuously for washing. Simultaneously with the injection of the aforementioned His-tag-added HMGB1 and washing with the aforementioned running buffer, signal intensity was measured. The aforementioned running buffer was composed of 20 mmol/L of HEPES, 500 mmol/L of NaCl, 0.1 mmol/L of MgCl₂, and 0.1% Triton X-100 (registered trademark), with the pH thereof being 7.2. As a blocking agent for suppressing nonspecific binding, tRNA was used in a concentration of 1 mg/mL. In a comparative example, signal intensity was measured in the same manner except that the aforementioned comparative example RNA was used in place of the aforementioned example RNA aptamers.
An analysis of ability to bind to His-tag-added HMGB1 was carried out in the same manner as in (2) above of the aforementioned Example 1 except that the aforementioned RNA aptamers were used, the concentration of the aforementioned His-tag-added HMGB1 was 635 nmol/L, and the injection time of the aforementioned His-tag-added HMGB1 was 60 seconds. […]
For orientation: Surface plasmon resonance follows binding to a sensor surface in real time, without labels.

For data set [2], the target named is T1, His-tagged HMGB1. Kind of data set: SPR; 150 nM protein; excellent binding. How it is done: (§2) The ability of each of the aforementioned RNA aptamers to bind to HMGB1 in which His-tag was added to the N-terminus (His-tag-added HMGB1) was examined. For the analysis of the aforementioned binding ability, a BIACORE (registered trademark) X (manufactured by GE Healthcare) was used according to its instruction manual.
as §1, with “675 nmol/L of the aforementioned His-tag-added HMGB1 was injected at a flow rate” left out

For data set [3], the target named is T1, His-tagged HMGB1. Kind of data set: SPR; superior to R8c6_1; 160 nM protein. How it is done: as §1, with “675 nmol/L of the aforementioned His-tag-added HMGB1 was injected at a flow rate” left out, “The aforementioned running buffer was composed of 20 mmol/L of HEPES, 500 mmol/L of NaCl, 0.1 mmol/L of MgCl₂, and 0.1% Triton X-100 (registered trademark), with the pH thereof being 7.2. As a blocking agent for suppressing nonspecific binding, tRNA was used in a concentration of 1 mg/mL.” left out, “aptamers. […]” for “aptamers.”

Data set [4] addresses T1, His-tagged HMGB1. Kind of data set: SPR; 200 nM protein; comparable to unmodified R8c6_1 at 150 mM NaCl.
The target of data set [5] is T1, His-tagged HMGB1. Kind of data set: SPR; 200 nM protein, 150 mM NaCl; excellent binding. How it is done: as §1, with “675 nmol/L of the aforementioned His-tag-added HMGB1 was injected at a flow rate” left out, “The aforementioned running buffer was composed of 20 mmol/L of HEPES, 500 mmol/L of NaCl, 0.1 mmol/L of MgCl₂, and 0.1% Triton X-100 (registered trademark), with the pH thereof being 7.2. As a blocking agent for suppressing nonspecific binding, tRNA was used in a concentration of 1 mg/mL.” left out, “aptamers. […]” for “aptamers.”

Data set [6] has as its target T1, His-tagged HMGB1. The data set can be described thus: SPR; 150 nM protein; listed in Table 7. How it is done: as §2
First, a sensor chip (trade name: Sensor Chip SA, manufactured by GE Heathcare) specially made for a BIACORE was set on the aforementioned BLACORE (registered trademark) X. Biotinylate deoxythymidine (5 μmol/L) was injected into the flow cell 2 of the aforementioned sensor chip using a running buffer and subjected to binding until the signal intensity (RU: resonance unit) reached about 1000 RU. For the aforementioned biotinylated deoxythymidine, 20-base-long deoxythymidine in which the 5′ end was biotinylated was used. […] Simultaneously with the injection of the aforementioned His-tag-added HMGB1 and washing with the aforementioned running buffer, signal intensity was measured. […] In a comparative example, signal intensity was measured in the same manner except that the aforementioned comparative example RNA was used in place of the aforementioned example RNA aptamers.

Data set [7] addresses T1, His-tagged HMGB1. The data set can be described thus: SPR; comparable to unmodified R8c6_1 at 500 and 150 mM NaCl.

T1 sequence (P09429 whole entry, one chain of several): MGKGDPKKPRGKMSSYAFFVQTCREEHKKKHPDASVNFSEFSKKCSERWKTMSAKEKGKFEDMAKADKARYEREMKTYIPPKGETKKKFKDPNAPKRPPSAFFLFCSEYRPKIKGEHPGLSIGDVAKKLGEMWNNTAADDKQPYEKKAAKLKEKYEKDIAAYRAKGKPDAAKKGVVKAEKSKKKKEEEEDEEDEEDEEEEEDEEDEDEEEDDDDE

B1: R8c6_1-1 (ssRNA)
RNA: GGGACGCUCACGUACGCUCAGAGUACAGUAAGACACGUAGCACCAGUCUGACGUUUGUCGUCAGUGCCUGGACGUGCAG
As to B1, the binding result in the data set with His-tagged HMGB1 [1] is recorded as “binds”.

B2: R8c6_1-3 (ssRNA)
RNA: GGGACGCUCACGUACGCUCAGAGUACAGUAAGACACGUAGCACCAGUCUGACGUUUGUCGUCAGUGCCUGGACGUGC
As for B2, in the data set with His-tagged HMGB1 [1], the binding result was “binds”. Consider GGGACAGUAAGACACGUAGCACCAGUGUGCCUGGACGUGCAGU (ssRNA, 2'-F on all C and U) [2'F-R8c6_1-21-S6], for which the binding result with His-tagged HMGB1 [2] is listed as “binds”.

B3: R8c6_1-25 (ssRNA)
RNA: GGGUAAGACACGUAGCACCAGUCUGACGUUUGUCGUCAGUGCCUGGACGUGCAGU
For the molecule B3, the binding result with His-tagged HMGB1 [3] is on record as “binds”.

B4: 2'F-R8c6_1-25 (ssRNA)
RNA: GGGUAAGACACGUAGCACCAGUCUGACGUUUGUCGUCAGUGCCUGGACGUGCAGU
modifications: 2'-F on all C and U
As to B4, the binding result with His-tagged HMGB1 [2] was “binds”.

B5: 2'F-R8c6_1 (2'F-CU-R8c6_1) (ssRNA)
RNA: GGGACGCUCACGUACGCUCAGAGUACAGUAAGACACGUAGCACCAGUCUGACGUUUGUCGUCAGUGCCUGGACGUGCAGU
modifications: 2'-F on all C and U
As for B5, the binding result with His-tagged HMGB1 [4] was “binds”.

B6: 2'F-C-R8c6_1 (ssRNA)
RNA: GGGACGCUCACGUACGCUCAGAGUACAGUAAGACACGUAGCACCAGUCUGACGUUUGUCGUCAGUGCCUGGACGUGCAGU
modifications: 2'-F on all C
For B6, the binding result with His-tagged HMGB1 [5] is on record as “binds”.

B7: 2'F-U-R8c6_1 (ssRNA)
RNA: GGGACGCUCACGUACGCUCAGAGUACAGUAAGACACGUAGCACCAGUCUGACGUUUGUCGUCAGUGCCUGGACGUGCAGU
modifications: 2'-F on all U
As to B7, the binding result with His-tagged HMGB1 [5] is “binds”.

B8: R8c6_1-4 (ssRNA)
RNA: GGGACGCUCACGUACGCUCAGAGUACAGUAAGACACGUAGCACCAGUCUGACGUUUGUCGUCAGUGCCUGGACGUG
For B8, the binding result with His-tagged HMGB1 [1] was “binds”. Turning to GGGUAAGACACGUAGCACCAGUGUGCCUGGACGUGCGU (ssRNA, 2'-F on all C and U) [2'F-R8c6_1-25-S6A3], the binding result in the data set with His-tagged HMGB1 [6] was “binds”.

B9: 2'F-R8c6_1-18 (ssRNA)
RNA: GGGAGUACAGUAAGACACGUAGCACCAGUCUGACGUUUGUCGUCAGUGCCUGGACGUGCAGU
modifications: 2'-F on all C and U
Take B9: the binding result with His-tagged HMGB1 [7] is given as “binds”. Take GGGACAGUAAGACACGUAGCACCAGUGCCUGGACGUGCAGU (ssRNA, 2'-F on all C and U) [2'F-R8c6_1-21-S8]: the binding result in the data set with His-tagged HMGB1 [2] is listed as “binds”.

B10: R8c6_1-18-S2 (ssRNA)
RNA: GGGAGUACAGUAAGACACGUAGCACCAGUCGCGUUUGUCGCGUGCCUGGACGUGCAGU
For B10, in the data set with His-tagged HMGB1 [3], the binding result is recorded as “binds”. Consider GGGAGUACAGUAAGACACGUAGCACCAGUGUGCCUGGACGUGCAGU (ssRNA, 2'-F on all C and U) [2'F-R8c6_1-18-S6], for which the binding result with His-tagged HMGB1 [2] was “binds”.
